Test results published in publication PMC11260360 (Nature structural & molecular biology, 2023).

Biological target: DENND10 (recombinant, pull-down) (human, UniProt Q8TCE6 1-357)
Experiment: pull-down

Chain of DENND10 (recombinant, pull-down) (Q8TCE6 whole entry): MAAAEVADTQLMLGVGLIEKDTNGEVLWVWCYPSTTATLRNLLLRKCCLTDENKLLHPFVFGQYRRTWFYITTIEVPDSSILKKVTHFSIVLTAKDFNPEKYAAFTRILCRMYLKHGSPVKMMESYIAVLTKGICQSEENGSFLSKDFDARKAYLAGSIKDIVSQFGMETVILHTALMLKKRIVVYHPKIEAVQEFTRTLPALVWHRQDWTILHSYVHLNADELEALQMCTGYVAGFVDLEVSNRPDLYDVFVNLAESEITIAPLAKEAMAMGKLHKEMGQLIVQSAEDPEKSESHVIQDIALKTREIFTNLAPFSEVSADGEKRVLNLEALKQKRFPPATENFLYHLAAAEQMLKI

Row | Binder | binding result
1 | MBP-tagged CCDC22-CCDC93 DBD (complex, human) chain 1: GAGAKTGAPKGSRFTHSEKFTFHLEPQAQATQVSDVPATSRRPEQVTWAAQEQELESLREQLEGVNRSIEEVEADMKTLGVSFVQAESECRHSKLSTAEREQALRLKSRAVELLPDGTANLAKLQLVVENSAQRVIHLAGQWEKHRVPLLAEYRHLRKLQDCRELES chain 2: SPEKLGTSQLHRRKVISLNKQIAQKTKHLEELRASHTSLQARYNEAKKTLTELKTYSEKLDKEQAALEKIESKADPSILQNLRALVAMNENLKSQEQEFKAHCREEMTRLQQEIENLKAERAPRGDEKT | binds
2 | MBP-tagged CCDC22-CCDC93 DBD, CCDC93 E410R (complex, human) chain 1: GAGAKTGAPKGSRFTHSEKFTFHLEPQAQATQVSDVPATSRRPEQVTWAAQEQELESLREQLEGVNRSIEEVEADMKTLGVSFVQAESECRHSKLSTAEREQALRLKSRAVELLPDGTANLAKLQLVVENSAQRVIHLAGQWEKHRVPLLAEYRHLRKLQDCRELES chain 2: SPEKLGTSQLHRRKVISLNKQIAQKTKHLEELRASHTSLQARYNEAKKTLTELKTYSEKLDKEQAALEKIESKADPSILQNLRALVAMNENLKSQEQEFKAHCRERMTRLQQEIENLKAERAPRGDEKT | binds
